US20110239319, “Use of Endonucleases for Inserting Transgenes Into Safe Harbor Loci” (published 2011)
Changes are numbered by the printed parent chain.

What was measured:
Assay in all cases: cell_activity; endogenous locus, 293H
SCOH-SH18-b11-C.2 = target: T1, SCOH-SH18-b11-C.2 (artificial)
T1 chain: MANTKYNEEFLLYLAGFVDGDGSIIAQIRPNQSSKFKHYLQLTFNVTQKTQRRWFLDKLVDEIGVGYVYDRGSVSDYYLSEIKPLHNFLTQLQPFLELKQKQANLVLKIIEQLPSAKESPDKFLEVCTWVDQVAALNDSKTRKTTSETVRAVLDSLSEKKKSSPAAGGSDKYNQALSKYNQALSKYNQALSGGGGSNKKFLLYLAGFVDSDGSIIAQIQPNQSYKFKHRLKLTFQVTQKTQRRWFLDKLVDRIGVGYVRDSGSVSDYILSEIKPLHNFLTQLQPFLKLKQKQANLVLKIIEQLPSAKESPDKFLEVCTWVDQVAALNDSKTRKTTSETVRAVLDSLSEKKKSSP
Protocol: (§1) Human embryonic kidney 293H cells (Invitrogen) were plated at a density of 1×10⁶ cells per 10 cm dish in complete medium (DMEM supplemented with 2 mM L-glutamine, penicillin (100 UI/ml), streptomycin (100 μg/ml), amphotericin B (Fongizone) (0.25 μg/ml) (Invitrogen-Life Science) and 10% FBS). The next day, cells were transfected with 3 μg of single-chain meganuclease expression vector using Lipofectamine 2000 transfection reagent (Invitrogen) according to the supplier's protocol. After 2 to 6 days of incubation at 37° C., cells were trypsinized and genomic DNA extraction was performed with the DNeasy blood and tissue kit (Qiagen) according to the supplier's protocol.
(§2) Human embryonic kidney 293H cells were transfected with a plasmid expressing a single-chain safe harbor meganuclease. After 2 to 6 days of incubation at 37° C., genomic DNA was isolated and PCR was used to amplify the genomic sequence surrounding the meganuclease target site. Sequences were then analyzed for the presence of insertions or deletions events (InDel) in the cleavage site of each safe harbor target.

SCOH-SH13 = target: T2, SCOH-SH13 (artificial)
T2 chain: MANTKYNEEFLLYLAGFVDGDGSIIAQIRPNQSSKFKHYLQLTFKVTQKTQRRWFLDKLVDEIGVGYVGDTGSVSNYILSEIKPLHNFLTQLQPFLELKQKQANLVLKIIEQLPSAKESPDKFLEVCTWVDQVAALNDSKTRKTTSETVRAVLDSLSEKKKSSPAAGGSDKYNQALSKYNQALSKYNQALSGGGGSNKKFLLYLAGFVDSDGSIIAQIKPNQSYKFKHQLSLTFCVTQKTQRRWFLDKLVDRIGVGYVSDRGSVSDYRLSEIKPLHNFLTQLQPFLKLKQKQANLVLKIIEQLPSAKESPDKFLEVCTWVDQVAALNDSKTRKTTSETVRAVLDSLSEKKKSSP
Protocol: as §1, §2

SCOH-SH8 = target: T3, SCOH-SH8 (artificial)
T3 chain: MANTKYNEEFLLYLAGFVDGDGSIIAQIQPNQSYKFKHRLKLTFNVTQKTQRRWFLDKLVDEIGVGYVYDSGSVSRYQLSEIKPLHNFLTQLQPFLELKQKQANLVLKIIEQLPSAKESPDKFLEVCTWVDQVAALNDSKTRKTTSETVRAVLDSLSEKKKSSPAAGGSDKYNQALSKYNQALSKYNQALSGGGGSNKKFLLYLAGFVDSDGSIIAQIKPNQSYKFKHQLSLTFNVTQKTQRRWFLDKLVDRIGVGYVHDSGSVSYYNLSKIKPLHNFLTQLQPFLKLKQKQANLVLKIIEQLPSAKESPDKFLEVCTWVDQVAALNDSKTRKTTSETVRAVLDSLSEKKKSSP
Protocol: as §1, §2

[1] = target: T4, QCSH61-H01d (QC-SH6-H01_V2_7E_70R75D) (artificial)
T4 chain: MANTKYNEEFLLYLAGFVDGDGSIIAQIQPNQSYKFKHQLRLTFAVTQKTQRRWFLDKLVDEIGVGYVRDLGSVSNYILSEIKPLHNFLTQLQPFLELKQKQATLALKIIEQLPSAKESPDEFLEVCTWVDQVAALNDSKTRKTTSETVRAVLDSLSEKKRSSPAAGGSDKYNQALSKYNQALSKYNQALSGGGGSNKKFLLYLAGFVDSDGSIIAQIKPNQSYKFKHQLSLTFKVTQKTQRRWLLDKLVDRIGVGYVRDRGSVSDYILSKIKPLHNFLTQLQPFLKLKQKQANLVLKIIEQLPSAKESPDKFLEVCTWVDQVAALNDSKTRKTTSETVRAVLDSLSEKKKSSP
Protocol: as §1, §2

[2] = target: T5, QCSH61-H01a (SCOH-QCSH6-H01) (artificial)
T5 chain: T4 chain with E8R, R261S, D266N
Protocol: as §1, §2

SCOH-SH6-b11-G2.2_BQY = target: T6, SCOH-SH6-b11-G2.2_BQY (artificial)
T6 chain: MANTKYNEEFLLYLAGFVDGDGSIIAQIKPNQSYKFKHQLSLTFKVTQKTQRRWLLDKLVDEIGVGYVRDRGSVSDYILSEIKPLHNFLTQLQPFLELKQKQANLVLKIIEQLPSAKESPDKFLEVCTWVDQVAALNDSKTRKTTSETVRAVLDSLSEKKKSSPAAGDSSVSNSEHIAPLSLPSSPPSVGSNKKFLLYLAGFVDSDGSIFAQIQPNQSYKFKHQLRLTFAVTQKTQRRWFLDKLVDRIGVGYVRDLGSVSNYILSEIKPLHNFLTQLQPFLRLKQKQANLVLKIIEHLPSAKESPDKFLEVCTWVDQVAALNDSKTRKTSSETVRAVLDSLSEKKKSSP
Protocol: as §1, §2

SCOH-SH6-b12-G2_BQY = target: T7, SCOH-SH6-b12-G2_BQY (artificial)
T7 chain: T6 chain with D70G, R71S, D76N
Protocol: as §1, §2

[3] = target: T8, QCSH61-H01b (QC-SH6-H01_7E) (artificial)
T8 chain: T4 chain with R261S, D266N
Protocol: as §1, §2

B1: SH18 target (dsDNA)
DNA 1: CTTACCCCACGTACCACAGACTGT
DNA 2: ACAGTCTGTGGTACGTGGGGTAAG
B1 gave an activity (SCOH-SH18-b11-C.2) of 1.2 % InDels.

B2: SH13 target (dsDNA)
DNA 1: ATTACACTCTTTAAGTGATTTTAA
DNA 2: TTAAAATCACTTAAAGAGTGTAAT
In the case of B2, the activity (SCOH-SH13) is reported as 1.5 % InDels.

B3: SH8 target (dsDNA)
DNA 1: ACAATCTGAGGTAAGTAATACTGA
DNA 2: TCAGTATTACTTACCTCAGATTGT
Work on B3 yielded an activity (SCOH-SH8) of 0.5 % InDels.

B4: SH6 target (dsDNA)
DNA 1: TTAATACCCCGTACCTAATATTGC
DNA 2: GCAATATTAGGTACGGGGTATTAA
For B4, the activity [1] was 3.5 % InDels, the activity [2] was 0.6 % InDels and the activity (SCOH-SH6-b11-G2.2_BQY) was 3 % InDels. It also gave an activity (SCOH-SH6-b12-G2_BQY) of 1 % InDels and an activity [3] of 1.5 % InDels.
